Test results reported in IntAct's records for PubMed 31515488.

B1: Myotubularin-related protein 9 (Homo sapiens), Q96QG7 (parent)
chain: MEFAELIKTPRVDNVVLHRPFYPAVEGTLCLTGHHLILSSRQDNTEELWLLHSNIDAIDKRFVGSLGTIIIKCKDFRIIQLDIPGMEECLNIASSIEALSTLDSITLMYPFFYRPMFEVIEDGWHSFLPEQEFELYSSATSEWRLSYVNKEFAVCPSYPPIVTVPKSIDDEALRKVATFRHGGRFPVLSYYHKKNGMVIMRSGQPLTGTNGRRCKEDEKLINATLRAGKRGYIIDTRSLNVAQQTRAKGGGFEQEAHYPQWRRIHKSIERYHILQESLIKLVEACNDQTHNMDRWLSKLEASNWLTHIKEILTTACLAAQCIDREGASILIHGTEGTDSTLQVTSLAQIILEPRSRTIRGFEALIEREWLQAGHPFQQRCAQSAYCNTKQKWEAPVFLLFLDCVWQILRQFPCSFEFNENFLIMLFEHAYASQFGTFLGNNESERCKLKLQQKTMSLWSWVNQPSELSKFTNPLFEANNLVIWPSVAPQSLPLWEGIFLRWNRSSKYLDEAYEEMVNIIEYNKELQAKVNILRRQLAELETEDGMQESP
B2: WW domain-containing adapter protein with coiled-coil (Homo sapiens), Q9BTA9-1 (parent)
chain: MVMYARKQQRLSDGCHDRRGDSQPYQALKYSSKSHPSSGDHRHEKMRDAGDPSPPNKMLRRSDSPENKYSDSTGHSKAKNVHTHRVRERDGGTSYSPQENSHNHSALHSSNSHSSNPSNNPSKTSDAPYDSADDWSEHISSSGKKYYYNCRTEVSQWEKPKEWLEREQRQKEANKMAVNSFPKDRDYRREVMQATATSGFASGMEDKHSSDASSLLPQNILSQTSRHNDRDYRLPRAETHSSSTPVQHPIKPVVHPTATPSTVPSSPFTLQSDHQPKKSFDANGASTLSKLPTPTSSVPAQKTERKESTSGDKPVSHSCTTPSTSSASGLNPTSAPPTSASAVPVSPVPQSPIPPLLQDPNLLRQLLPALQATLQLNNSNVDISKINEVLTAAVTQASLQSIIHKFLTAGPSAFNITSLISQAAQLSTQAQPSNQSPMSLTSDASSPRSYVSPRISTPQTNTVPIKPLISTPPVSSQPKVSTPVVKQGPVSQSATQQPVTADKQQGHEPVSPRSLQRSSSQRSPSPGPNHTSNSSNASNATVVPQNSSARSTCSLTPALAAHFSENLIKHVQGWPADHAEKQASRLREEAHNMGTIHMSEICTELKNLRSLVRVCEIQATLREQRILFLRQQIKELEKLKNQNSFMV
B3: SKA complex subunit 1 (Homo sapiens), Q96BD8 (parent)
chain: MASSDLEQLCSHVNEKIGNIKKTLSLRNCGQEPTLKTVLNKIGDEIIVINELLNKLELEIQYQEQTNNSLKELCESLEEDYKDIEHLKENVPSHLPQVTVTQSCVKGSDLDPEEPIKVEEPEPVKKPPKEQRSIKEMPFITCDEFNGVPSYMKSRLTYNQINDVIKEINKAVISKYKILHQPKKSMNSVTRNLYHRFIDEETKDTKGRYFIVEADIKEFTTLKADKKFHVLLNILRHCRRLSEVRGGGLTRYVIT
partner: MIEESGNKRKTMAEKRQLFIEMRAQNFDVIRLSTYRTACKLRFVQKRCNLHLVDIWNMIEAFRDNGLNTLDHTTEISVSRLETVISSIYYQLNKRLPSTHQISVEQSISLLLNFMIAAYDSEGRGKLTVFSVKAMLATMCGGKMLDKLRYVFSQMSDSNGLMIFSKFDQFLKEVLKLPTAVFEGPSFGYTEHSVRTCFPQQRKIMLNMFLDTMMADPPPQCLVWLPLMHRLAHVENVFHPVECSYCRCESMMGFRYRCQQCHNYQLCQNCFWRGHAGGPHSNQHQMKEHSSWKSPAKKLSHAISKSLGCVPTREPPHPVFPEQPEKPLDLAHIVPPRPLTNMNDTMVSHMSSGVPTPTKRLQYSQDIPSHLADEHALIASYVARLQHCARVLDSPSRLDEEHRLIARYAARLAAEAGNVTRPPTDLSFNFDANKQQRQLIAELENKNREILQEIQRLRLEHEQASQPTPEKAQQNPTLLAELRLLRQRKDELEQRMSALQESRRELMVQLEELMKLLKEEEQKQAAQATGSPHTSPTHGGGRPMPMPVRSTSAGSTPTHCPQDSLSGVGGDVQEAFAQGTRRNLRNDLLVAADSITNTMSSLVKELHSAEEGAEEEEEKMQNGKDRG
B4: NIF3-like protein 1 (Homo sapiens), Q9GZT8 (parent)
chain: MLSSCVRPVPTTVRFVDSLICNSSRSFMDLKALLSSLNDFASLSFAESWDNVGLLVEPSPPHTVNTLFLTNDLTEEVMEEVLQKKADLILSYHPPIFRPMKRITWNTWKERLVIRALENRVGIYSPHTAYDAAPQGVNNWLAKGLGACTSRPIHPSKAPNYPTEGNHRVEFNVNYTQDLDKVMSAVKGIDGVSVTSFSARTGNEEQTRINLNCTQKALMQVVDFLSRNKQLYQKTEILSLEKPLLLHTGMGRLCTLDESVSLATMIDRIKRHLKLSHIRLALGVGRTLESQVKVVALCAGSGSSVLQGVEADLYLTGEMSHHDTLDAASQGINVILCEHSNTERGFLSDLRDMLDSHLENKINIILSETDRDPLQVV
partner: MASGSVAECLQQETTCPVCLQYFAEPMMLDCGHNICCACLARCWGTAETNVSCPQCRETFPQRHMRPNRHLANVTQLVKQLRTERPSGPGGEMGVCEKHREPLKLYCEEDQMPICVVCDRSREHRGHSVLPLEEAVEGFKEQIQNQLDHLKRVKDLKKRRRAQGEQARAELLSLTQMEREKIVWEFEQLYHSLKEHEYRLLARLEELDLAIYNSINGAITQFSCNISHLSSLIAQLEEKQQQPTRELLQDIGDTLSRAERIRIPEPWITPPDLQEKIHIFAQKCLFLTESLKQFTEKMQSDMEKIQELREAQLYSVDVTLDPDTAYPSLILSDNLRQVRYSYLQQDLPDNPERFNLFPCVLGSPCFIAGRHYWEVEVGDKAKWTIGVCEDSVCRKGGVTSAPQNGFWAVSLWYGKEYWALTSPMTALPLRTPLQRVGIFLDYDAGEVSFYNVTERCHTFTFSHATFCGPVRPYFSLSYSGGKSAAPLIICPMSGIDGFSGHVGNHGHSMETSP
B5: Progranulin (Homo sapiens), P28799 (parent)
chain: MWTLVSWVALTAGLVAGTRCPDGQFCPVACCLDPGGASYSCCRPLLDKWPTTLSRHLGGPCQVDAHCSAGHSCIFTVSGTSSCCPFPEAVACGDGHHCCPRGFHCSADGRSCFQRSGNNSVGAIQCPDSQFECPDFSTCCVMVDGSWGCCPMPQASCCEDRVHCCPHGAFCDLVHTRCITPTGTHPLAKKLPAQRTNRAVALSSSVMCPDARSRCPDGSTCCELPSGKYGCCPMPNATCCSDHLHCCPQDTVCDLIQSKCLSKENATTDLLTKLPAHTVGDVKCDMEVSCPDGYTCCRLQSGAWGCCPFTQAVCCEDHIHCCPAGFTCDTQKGTCEQGPHQVPWMEKAPAHLSLPDPQALKRDVPCDNVSSCPSSDTCCQLTSGEWGCCPIPEAVCCSDHQHCCPQGYTCVAEGQCQRGSEIVAGLEKMPARRASLSHPRDIGCDQHTSCPVGQTCCPSLGGSWACCQLPHAVCCEDRQHCCPAGYTCNVKARSCEKEVVSAQPATFLARSPHVGVKDVECGEGHFCHDNQTCCRDNRQGWACCPYRQGVCCADRRHCCPAGFRCAARGTKCLRREAPRWDAPLRDPALRQLL
B6: Segment polarity protein dishevelled homolog DVL-2 (Homo sapiens), O14641 (parent)
chain: MAGSSTGGGGVGETKVIYHLDEEETPYLVKIPVPAERITLGDFKSVLQRPAGAKYFFKSMDQDFGVVKEEISDDNARLPCFNGRVVSWLVSSDNPQPEMAPPVHEPRAELAPPAPPLPPLPPERTSGIGDSRPPSFHPNVSSSHENLEPETETESVVSLRRERPRRRDSSEHGAGGHRTGGPSRLERHLAGYESSSTLMTSELESTSLGDSDEEDTMSRFSSSTEQSSASRLLKRHRRRRKQRPPRLERTSSFSSVTDSTMSLNIITVTLNMEKYNFLGISIVGQSNERGDGGIYIGSIMKGGAVAADGRIEPGDMLLQVNDMNFENMSNDDAVRVLRDIVHKPGPIVLTVAKCWDPSPQAYFTLPRNEPIQPIDPAAWVSHSAALTGTFPAYPGSSSMSTITSGSSLPDGCEGRGLSVHTDMASVTKAMAAPESGLEVRDRMWLKITIPNAFLGSDVVDWLYHHVEGFPERREARKYASGLLKAGLIRHTVNKITFSEQCYYVFGDLSGGCESYLVNLSLNDNDGSSGASDQDTLAPLPGATPWPLLPTFSYQYPAPHPYSPQPPPYHELSSYTYGGGSASSQHSEGSRSSGSTRSDGGAGRTGRPEERAPESKSGSGSESEPSSRGGSLRRGGEASGTSDGGPPPSRGSTGGAPNLRAHPGLHPYGPPPGMALPYNPMMVVMMPPPPPPVPPAVQPPGAPPVRDLGSVPPELTASRQSFHMAMGNPSEFFVDVM
B7: Keratin, type II cytoskeletal 6A (Homo sapiens), P02538 (parent)
chain: MASTSTTIRSHSSSRRGFSANSARLPGVSRSGFSSVSVSRSRGSGGLGGACGGAGFGSRSLYGLGGSKRISIGGGSCAISGGYGSRAGGSYGFGGAGSGFGFGGGAGIGFGLGGGAGLAGGFGGPGFPVCPPGGIQEVTVNQSLLTPLNLQIDPTIQRVRAEEREQIKTLNNKFASFIDKVRFLEQQNKVLETKWTLLQEQGTKTVRQNLEPLFEQYINNLRRQLDSIVGERGRLDSELRGMQDLVEDFKNKYEDEINKRTAAENEFVTLKKDVDAAYMNKVELQAKADTLTDEINFLRALYDAELSQMQTHISDTSVVLSMDNNRNLDLDSIIAEVKAQYEEIAQRSRAEAESWYQTKYEELQVTAGRHGDDLRNTKQEIAEINRMIQRLRSEIDHVKKQCANLQAAIADAEQRGEMALKDAKNKLEGLEDALQKAKQDLARLLKEYQELMNVKLALDVEIATYRKLLEGEECRLNGEGVGQVNISVVQSTVSSGYGGASGVGSGLGLGGGSSYSYGSGLGVGGGFSSSSGRAIGGGLSSVGGGSSTIKYTTTSSSSRKSYKH
partner: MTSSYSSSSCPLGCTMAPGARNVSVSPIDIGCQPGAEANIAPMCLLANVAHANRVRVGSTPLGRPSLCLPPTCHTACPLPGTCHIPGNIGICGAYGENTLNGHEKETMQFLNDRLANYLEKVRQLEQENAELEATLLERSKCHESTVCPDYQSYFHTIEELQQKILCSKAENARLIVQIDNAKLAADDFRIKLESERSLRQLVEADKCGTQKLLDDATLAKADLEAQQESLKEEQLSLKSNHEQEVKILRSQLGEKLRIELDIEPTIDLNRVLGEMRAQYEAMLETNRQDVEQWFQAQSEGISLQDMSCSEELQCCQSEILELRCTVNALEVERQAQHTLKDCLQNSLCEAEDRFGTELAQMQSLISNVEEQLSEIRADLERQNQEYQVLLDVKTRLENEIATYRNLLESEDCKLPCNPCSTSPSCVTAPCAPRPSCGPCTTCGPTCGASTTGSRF

Variants of: B1
Details: with lnx1_human LNX1, Q8TBB1
lnx1_human LNX1, Q8TBB1, sequence (Q8TBB1 whole entry): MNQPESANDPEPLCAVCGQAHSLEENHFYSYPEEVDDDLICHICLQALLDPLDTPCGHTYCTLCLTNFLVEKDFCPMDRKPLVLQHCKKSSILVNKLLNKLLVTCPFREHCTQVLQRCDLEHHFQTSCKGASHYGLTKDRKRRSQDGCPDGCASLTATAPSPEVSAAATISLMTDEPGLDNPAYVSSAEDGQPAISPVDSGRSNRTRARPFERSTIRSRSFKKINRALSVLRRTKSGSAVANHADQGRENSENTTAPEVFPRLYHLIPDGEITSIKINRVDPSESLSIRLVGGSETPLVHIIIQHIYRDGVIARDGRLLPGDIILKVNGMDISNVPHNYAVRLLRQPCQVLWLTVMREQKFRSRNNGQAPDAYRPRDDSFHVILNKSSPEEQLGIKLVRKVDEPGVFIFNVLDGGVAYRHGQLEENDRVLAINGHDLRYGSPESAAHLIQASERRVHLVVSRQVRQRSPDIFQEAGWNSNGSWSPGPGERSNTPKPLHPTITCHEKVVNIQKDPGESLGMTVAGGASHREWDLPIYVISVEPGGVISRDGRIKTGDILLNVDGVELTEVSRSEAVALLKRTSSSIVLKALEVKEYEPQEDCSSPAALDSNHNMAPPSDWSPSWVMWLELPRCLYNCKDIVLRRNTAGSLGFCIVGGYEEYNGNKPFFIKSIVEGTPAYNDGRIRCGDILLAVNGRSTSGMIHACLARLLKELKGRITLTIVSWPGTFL

Row | Variant | effect of a mutation on the interaction
1 | S126C | disrupting interaction strength

Variants of: B1
Details: with emil1_human EMILIN1, Q9Y6C2
emil1_human EMILIN1, Q9Y6C2, sequence (Q9Y6C2 whole entry): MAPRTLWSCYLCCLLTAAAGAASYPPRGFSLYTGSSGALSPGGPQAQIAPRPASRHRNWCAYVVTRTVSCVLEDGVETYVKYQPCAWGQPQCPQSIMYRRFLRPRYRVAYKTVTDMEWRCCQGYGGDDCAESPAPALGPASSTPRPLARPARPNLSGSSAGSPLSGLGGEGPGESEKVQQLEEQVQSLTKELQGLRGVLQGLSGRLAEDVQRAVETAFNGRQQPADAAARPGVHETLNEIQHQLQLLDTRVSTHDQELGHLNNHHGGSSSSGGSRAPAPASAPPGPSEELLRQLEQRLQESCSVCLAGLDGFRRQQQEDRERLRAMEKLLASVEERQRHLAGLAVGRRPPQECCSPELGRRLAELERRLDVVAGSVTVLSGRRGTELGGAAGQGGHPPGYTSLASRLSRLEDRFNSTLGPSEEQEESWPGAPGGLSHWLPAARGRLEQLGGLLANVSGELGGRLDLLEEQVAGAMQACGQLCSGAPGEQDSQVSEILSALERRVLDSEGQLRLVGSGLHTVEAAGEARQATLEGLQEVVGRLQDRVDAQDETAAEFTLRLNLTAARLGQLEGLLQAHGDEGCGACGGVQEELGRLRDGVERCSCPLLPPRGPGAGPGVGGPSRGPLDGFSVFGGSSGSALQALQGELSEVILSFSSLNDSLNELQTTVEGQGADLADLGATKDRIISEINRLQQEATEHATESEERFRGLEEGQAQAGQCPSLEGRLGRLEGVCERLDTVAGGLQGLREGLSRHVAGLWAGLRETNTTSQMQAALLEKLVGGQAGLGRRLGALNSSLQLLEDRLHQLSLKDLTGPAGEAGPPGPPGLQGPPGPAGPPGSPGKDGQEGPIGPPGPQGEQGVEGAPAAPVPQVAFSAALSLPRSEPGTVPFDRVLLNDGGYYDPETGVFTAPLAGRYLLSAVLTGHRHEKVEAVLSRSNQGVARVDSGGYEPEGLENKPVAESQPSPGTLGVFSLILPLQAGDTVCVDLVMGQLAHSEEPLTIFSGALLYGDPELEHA

Row | Variant | effect of a mutation on the interaction
2 | S126C | with no effect

Variants of: B2
Details: with KRT15, P19012
KRT15, P19012, sequence (P19012 whole entry): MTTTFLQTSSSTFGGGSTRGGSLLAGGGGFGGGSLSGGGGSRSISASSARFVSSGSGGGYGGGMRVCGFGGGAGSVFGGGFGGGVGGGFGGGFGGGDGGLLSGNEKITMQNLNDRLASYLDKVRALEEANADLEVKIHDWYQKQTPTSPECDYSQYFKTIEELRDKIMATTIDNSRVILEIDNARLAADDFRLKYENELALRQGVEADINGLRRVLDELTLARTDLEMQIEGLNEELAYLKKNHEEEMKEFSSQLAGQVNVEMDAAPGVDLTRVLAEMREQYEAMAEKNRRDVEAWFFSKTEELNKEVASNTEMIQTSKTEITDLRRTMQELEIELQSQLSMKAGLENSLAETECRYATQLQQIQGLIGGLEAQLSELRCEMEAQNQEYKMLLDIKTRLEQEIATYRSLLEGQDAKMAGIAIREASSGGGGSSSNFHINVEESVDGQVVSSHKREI

Row | Variant | effect of a mutation on the interaction
3 | S475L | with no effect

Variants of: B2
Details: with nf2l2_human NFE2L2, Q16236
nf2l2_human NFE2L2, Q16236, sequence (Q16236 whole entry): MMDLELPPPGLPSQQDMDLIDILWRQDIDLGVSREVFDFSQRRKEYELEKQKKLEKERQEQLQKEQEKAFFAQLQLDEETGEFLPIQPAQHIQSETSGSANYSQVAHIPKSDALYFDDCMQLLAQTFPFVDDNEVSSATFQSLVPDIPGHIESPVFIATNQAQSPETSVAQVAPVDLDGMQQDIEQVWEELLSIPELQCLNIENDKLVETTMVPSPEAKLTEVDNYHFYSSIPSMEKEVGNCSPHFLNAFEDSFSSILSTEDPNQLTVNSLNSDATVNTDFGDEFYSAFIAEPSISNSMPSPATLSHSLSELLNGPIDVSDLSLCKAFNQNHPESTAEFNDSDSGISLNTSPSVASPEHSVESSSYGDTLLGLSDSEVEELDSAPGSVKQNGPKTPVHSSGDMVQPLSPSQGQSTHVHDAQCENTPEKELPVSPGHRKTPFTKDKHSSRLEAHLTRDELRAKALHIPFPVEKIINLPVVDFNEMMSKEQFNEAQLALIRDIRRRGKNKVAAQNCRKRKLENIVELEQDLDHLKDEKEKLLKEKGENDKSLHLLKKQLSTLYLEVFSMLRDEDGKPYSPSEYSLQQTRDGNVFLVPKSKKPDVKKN

Row | Variant | effect of a mutation on the interaction
4 | S475L | with no effect

Variants of: B2
Details: with mtus2_human MTUS2, Q5JR59

Row | Variant | effect of a mutation on the interaction
5 | S475L | with no effect

Variants of: B3
Details: with dtnb_human DTNB

Row | Variant | effect of a mutation on the interaction
6 | V91I | with no effect

Variants of: B4
Details: with tri27_human TRIM27, P14373

Row | Variant | effect of a mutation on the interaction
7 | T324I | disrupting interaction strength

Variants of: B5
Details: with hxa1_human HOXA1, P49639
hxa1_human HOXA1, P49639, sequence (P49639 whole entry): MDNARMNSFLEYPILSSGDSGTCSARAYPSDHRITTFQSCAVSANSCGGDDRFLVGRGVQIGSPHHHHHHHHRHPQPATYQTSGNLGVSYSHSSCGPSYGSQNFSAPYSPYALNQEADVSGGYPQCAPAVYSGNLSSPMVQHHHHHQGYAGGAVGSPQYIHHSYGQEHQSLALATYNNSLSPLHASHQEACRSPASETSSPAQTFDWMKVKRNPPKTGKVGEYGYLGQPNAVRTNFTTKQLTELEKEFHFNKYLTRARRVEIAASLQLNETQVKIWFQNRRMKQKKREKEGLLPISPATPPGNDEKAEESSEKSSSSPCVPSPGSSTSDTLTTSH

Row | Variant | effect of a mutation on the interaction
8 | R433W | with no effect
9 | D536E | with no effect
10 | G515A | with no effect

Variants of: B5
Details: with glrx3_human GLRX3, O76003
glrx3_human GLRX3, O76003, sequence (O76003 whole entry): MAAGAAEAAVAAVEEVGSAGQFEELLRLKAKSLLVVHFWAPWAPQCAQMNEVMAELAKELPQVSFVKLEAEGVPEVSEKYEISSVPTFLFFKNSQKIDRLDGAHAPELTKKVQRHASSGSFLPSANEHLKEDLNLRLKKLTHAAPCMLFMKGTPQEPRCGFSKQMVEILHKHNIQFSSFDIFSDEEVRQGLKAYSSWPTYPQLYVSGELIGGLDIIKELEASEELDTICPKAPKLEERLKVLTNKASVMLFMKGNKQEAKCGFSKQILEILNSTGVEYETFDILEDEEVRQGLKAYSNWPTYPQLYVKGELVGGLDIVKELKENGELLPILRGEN

Row | Variant | effect of a mutation on the interaction
11 | R433W | with no effect
12 | D536E | with no effect
13 | G515A | with no effect

Variants of: B5
Details: with sgta_human SGTA

Row | Variant | effect of a mutation on the interaction
14 | R19W | with no effect

Variants of: B5
Details: with otx1_human OTX1, P32242
otx1_human OTX1, P32242, sequence (P32242 whole entry): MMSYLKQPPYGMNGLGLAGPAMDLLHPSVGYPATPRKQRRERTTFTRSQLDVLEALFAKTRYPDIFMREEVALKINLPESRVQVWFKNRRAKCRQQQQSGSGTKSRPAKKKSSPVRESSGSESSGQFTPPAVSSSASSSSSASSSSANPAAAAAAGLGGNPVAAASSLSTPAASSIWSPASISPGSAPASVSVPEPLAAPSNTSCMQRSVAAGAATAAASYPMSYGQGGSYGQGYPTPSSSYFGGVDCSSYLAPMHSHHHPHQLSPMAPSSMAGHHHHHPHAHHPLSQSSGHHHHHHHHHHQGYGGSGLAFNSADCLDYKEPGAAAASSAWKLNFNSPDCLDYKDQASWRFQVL

Row | Variant | effect of a mutation on the interaction
15 | R19W | with no effect

Variants of: B6
Details: with thap1_human THAP1, Q9NVV9
thap1_human THAP1, Q9NVV9, sequence (Q9NVV9 whole entry): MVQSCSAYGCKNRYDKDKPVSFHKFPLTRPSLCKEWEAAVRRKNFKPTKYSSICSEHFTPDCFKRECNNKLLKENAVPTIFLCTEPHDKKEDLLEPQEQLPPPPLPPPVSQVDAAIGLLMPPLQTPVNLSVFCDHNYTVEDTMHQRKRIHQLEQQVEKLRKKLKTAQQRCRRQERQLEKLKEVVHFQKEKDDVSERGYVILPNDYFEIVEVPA

Row | Variant | effect of a mutation on the interaction
16 | T535I | with no effect
17 | A53V | with no effect

Variants of: B6
Details: with kc1e_human CSNK1E

Row | Variant | effect of a mutation on the interaction
18 | T535I | with no effect
19 | A53V | with no effect

Variants of: B6
Details: with traf2_human TRAF2, Q12933
traf2_human TRAF2, Q12933, sequence (Q12933 whole entry): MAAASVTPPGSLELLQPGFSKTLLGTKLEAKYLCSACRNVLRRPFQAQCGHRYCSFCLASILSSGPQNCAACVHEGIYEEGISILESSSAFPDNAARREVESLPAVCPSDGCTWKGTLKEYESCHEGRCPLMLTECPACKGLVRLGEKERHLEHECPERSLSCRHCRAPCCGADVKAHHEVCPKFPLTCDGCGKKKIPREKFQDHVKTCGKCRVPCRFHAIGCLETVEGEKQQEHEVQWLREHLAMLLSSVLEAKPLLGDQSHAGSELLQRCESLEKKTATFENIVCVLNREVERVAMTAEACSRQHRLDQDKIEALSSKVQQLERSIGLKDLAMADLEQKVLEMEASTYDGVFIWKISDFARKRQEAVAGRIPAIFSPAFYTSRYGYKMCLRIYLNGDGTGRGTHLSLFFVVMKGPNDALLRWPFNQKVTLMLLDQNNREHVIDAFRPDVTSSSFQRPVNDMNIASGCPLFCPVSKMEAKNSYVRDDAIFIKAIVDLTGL

Row | Variant | effect of a mutation on the interaction
20 | R415Q | with no effect

Variants of: B6
Details: with ap2m1_human AP2M1, Q96CW1
ap2m1_human AP2M1, Q96CW1, sequence (Q96CW1 whole entry): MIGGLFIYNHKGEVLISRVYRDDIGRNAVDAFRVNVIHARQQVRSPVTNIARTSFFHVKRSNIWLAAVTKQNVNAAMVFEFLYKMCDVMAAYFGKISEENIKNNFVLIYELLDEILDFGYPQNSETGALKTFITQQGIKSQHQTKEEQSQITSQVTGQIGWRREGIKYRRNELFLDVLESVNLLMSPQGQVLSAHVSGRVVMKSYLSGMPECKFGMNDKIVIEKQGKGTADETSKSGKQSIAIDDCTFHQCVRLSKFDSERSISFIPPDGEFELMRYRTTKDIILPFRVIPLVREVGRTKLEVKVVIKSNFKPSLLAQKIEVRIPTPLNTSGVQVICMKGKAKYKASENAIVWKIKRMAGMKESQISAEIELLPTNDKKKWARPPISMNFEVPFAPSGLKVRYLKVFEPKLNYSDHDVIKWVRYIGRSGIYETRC

Row | Variant | effect of a mutation on the interaction
21 | R415Q | with no effect

Variants of: B7
Details: with krt38_human KRT38, O76015

Row | Variant | effect of a mutation on the interaction
22 | P154S | with no effect
